In US20250157661 one finds Reader value (lateral flow, CF1522-gold) with MMP data, which are given here for four proteins.

The labels stand for the following.
B1: MMP12 (Enzo) (protein)
chain: GPVWRKHYITYRINNYTPDMNREDVDYAIRKAFQVWSNVTPLKFSKINTGMADILVVFARGAHGDFHAFDGKGGILAHAFGPGSGIGGDAHFDEDEFWTTHSGGTNLFLTAVHEIGHSLGLGHSSDPKAVMFPTYKYVDINTFRLSADDIRGIQSLYG
B2: MMP7 (Enzo) (protein)
chain: YSLFPNSPKWTSKVVTYRIVSYTRDLPHITVDRLVSKALNMWGKEIPLHFRKVVWGTADIMIGFARGAHGDSYPFDGPGNTLAHAFAPGTGLGGDAHFDEDERWTDGSSLGINFLYAATHELGHSLGMGHSSDPNAVMYPTYGNGDPQNFKLSQDDIKGIQKLYGKRSNSRKK
B3: MMP1 (Enzo) (protein)
chain: FVLTEGNPRWEQTHLTYRIENYTPDLPRADVDHAIEKAFQLWSNVTPLTFTKVSEGQADIMISFVRGDHRDNSPFDGPGGNLAHAFQPGPGIGGDAHFDEDERWTNNFREYNLHRVAAHELGHSLGLSHSTDIGALMYPSYTFSGDVQLAQDDIDGIQAIYGRSQNPVQP
B4: MMP11 (Enzo) (protein)
chain: FVLSGGRWEKTDLTYRILRFPWQLVQEQVRQTMAEALKVWSDVTPLTFTEVHEGRADIMIDFARYWHGDDLPFDGPGGILAHAFFPKTHREGDVHFDYDETWTIGDDQGTDLLQVAAHEFGHVLGLQHTTAAKALMSAFYTFRYPLSLSPDDCRGVQHLYGQPWPTVTSRTPALG

This series has as its target Indicator molecule containing the cleavable sequence GPQGIFGQ with a terminal biotin group connected via a polyethylene glycol spacer/linker (intact, Examples 1-6).
Protein B1 showed a Reader value (lateral flow, CF1522-gold) with MMP at 0.5 ug/ml of 1250 reader units.

B2 came in with a Reader value (lateral flow, CF1522-gold) with MMP at 0.5 ug/ml of 373 reader units.

Take B3: the Reader value (lateral flow, CF1522-gold) with MMP at 0.5 ug/ml came out at 478 reader units.

The protein B4 yielded a Reader value (lateral flow, CF1522-gold) with MMP at 0.5 ug/ml of 280 reader units.
